The values below come from US20040121386.

In series [1] the target is unactive JNK1 (Upstate, Inc.).

B1: His-tagged MKK7γ1 (protein)
chain: AASSLEQKLSRLEAKLKQENREARRRIDLNLDISPQRPRPIIVITLSPAPAPSQRAALQLPLANDGGSRSPSSESSPQHPTPPARPRHMLGLPSTLFTPRSMESIEIDQKLQEIMKQTGYPTIGGQRYQAEINDLENLGEMGSGTCGQVWKMRFRKTGHVIAVKQMRRSGNKEENKRILMDLDVVLKSHDCPYIVQCFGTFITNTDVFIAMELMGTCAEKLKKRMQGPIPERILGKMTVAIVKALYYLKEKHGVIHRDVKPSNILLDERGQIKLCDFGISGRLVDSKAKTRSAGCAAYMAPERIDPPDPTKPDYDIRADVWSLGISLVELATGQFPYKNCKTDFEVLTKVLQEEPPLLPGHMGFSGDFQSFVKDCLTKDHRKRPKYNKLLEHSFIKRYETLEVDVASWFKDVMAKTESPRTSGVLSQPHLPFFR
For B1, the “phosphorylation in a two-step cascade kinase assay (γ-32P-ATP, SDS/PAGE, autoradiography)” value in series [1] is reported as “in turn was able to phosphorylate JNK1”; with unactive p38 it was “MKK7γ1 was unable to phosphorylate p38”.
